{"source": "patent US20250263459A1", "about": "“STABILIZED PACAP PEPTIDE” (SENJU PHARMACEUTICAL CO., LTD., priority 2019, published 2025)", "binders": {"B1": {"name": "Peptide 9 (peptide)", "peptide": "HSXGIFTXSYSRYRKQMAVKKYLAAV", "modifications": "tetrazole-substituted aspartic acid (Tz, racemic) at positions 3 and 8; C-terminal amide (NH2)"}, "B2": {"name": "Peptide 11 (peptide)", "peptide": "HSXGIFTXSYSRYRKQXAVKKYLAAVL", "modifications": "sulfoxy-substituted aspartic acid (cya) at positions 3 and 8; norleucine (Nl) at position 17; C-terminal amide (NH2)"}, "B3": {"name": "Peptide 13 (peptide)", "peptide": "HSXGIFTXSYSRYRKQXAVKKYLAAVL", "modifications": "D-form tetrazole-substituted aspartic acid (Tz(D)) at positions 3 and 8; norleucine (Nl) at position 17; C-terminal amide (NH2)"}, "B4": {"name": "Peptide 14 (peptide)", "peptide": "HSXGIFTXSYSRYRKQXAVKKYLAAVL", "modifications": "tetrazole-substituted aspartic acid (Tz) at position 3; D-form tetrazole-substituted aspartic acid (Tz(D)) at position 8; norleucine (Nl) at position 17; C-terminal amide (NH2)"}, "B5": {"name": "Peptide 15 (peptide)", "peptide": "HSXGIFTXSYSRYRKQXAVKKYLAAVL", "modifications": "D-form tetrazole-substituted aspartic acid (Tz(D)) at position 3; tetrazole-substituted aspartic acid (Tz) at position 8; norleucine (Nl) at position 17; C-terminal amide (NH2)"}, "B6": {"name": "Peptide 10 (peptide)", "peptide": "HSXGIFTXSYSRYRKQLAVKKYLAAVL", "modifications": "sulfoxy-substituted aspartic acid (cya) at positions 3 and 8; C-terminal amide (NH2)"}, "B7": {"name": "Peptide 17 (peptide)", "peptide": "HSXGIFTXSYSRYRKQXAVKKYLAAVL", "modifications": "N-terminal CH3CH2CO; tetrazole-substituted aspartic acid (Tz) at positions 3 and 8; norleucine (Nl) at position 17; C-terminal amide (NH2)"}, "B8": {"name": "Peptide 16 (peptide)", "peptide": "HSXGIFTXSYSRYRKQXAVKKYLAAVL", "modifications": "tetrazole-substituted aspartic acid (Tz) at position 3; tetrazole-substituted glutamic acid (egTz) at position 8; norleucine (Nl) at position 17; C-terminal amide (NH2)"}, "B9": {"name": "Peptide 12 (peptide)", "peptide": "MHSXGIFTXSYSRYRKQLAVKKYLAAVL", "modifications": "tetrazole-substituted aspartic acid (Tz) at positions 4 and 9 of this 28-residue peptide (positions 3 and 8 of PACAP27); C-terminal amide (NH2)"}}, "key": {"PAC1 receptor": {"target": "T1, PAC1 receptor (UniProt P41586 21-468, limits assumed)", "T1 sequence (looked up)": "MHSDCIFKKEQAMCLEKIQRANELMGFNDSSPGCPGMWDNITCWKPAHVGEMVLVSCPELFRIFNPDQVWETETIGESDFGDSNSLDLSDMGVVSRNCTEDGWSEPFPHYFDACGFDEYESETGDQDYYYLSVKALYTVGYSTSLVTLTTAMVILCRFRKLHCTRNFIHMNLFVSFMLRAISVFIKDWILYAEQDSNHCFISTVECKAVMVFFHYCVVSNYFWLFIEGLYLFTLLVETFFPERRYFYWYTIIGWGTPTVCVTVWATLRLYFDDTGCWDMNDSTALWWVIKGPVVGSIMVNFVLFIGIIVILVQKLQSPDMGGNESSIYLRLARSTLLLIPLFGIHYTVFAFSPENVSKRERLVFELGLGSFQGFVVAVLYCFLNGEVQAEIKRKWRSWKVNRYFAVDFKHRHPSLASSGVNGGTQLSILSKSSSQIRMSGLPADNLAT", "test": "cell-based or functional assay"}, "VPAC1 receptor": {"target": "T2, VPAC1 receptor (UniProt P32241 31-457, limits assumed)", "T2 sequence (looked up)": "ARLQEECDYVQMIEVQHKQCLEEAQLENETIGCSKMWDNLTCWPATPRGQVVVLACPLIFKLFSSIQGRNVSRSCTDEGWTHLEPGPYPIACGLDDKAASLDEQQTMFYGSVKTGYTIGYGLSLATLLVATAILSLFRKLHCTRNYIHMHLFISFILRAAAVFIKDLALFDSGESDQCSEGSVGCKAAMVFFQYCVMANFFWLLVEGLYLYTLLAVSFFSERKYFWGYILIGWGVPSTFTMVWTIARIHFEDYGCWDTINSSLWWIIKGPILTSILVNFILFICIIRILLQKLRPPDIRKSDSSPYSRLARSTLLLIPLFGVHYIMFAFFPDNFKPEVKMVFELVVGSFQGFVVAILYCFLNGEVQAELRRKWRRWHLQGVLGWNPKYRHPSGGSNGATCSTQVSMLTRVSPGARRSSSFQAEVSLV", "test": "cell-based or functional assay"}}, "note": "Non-standard residues stand in square brackets, D forms with d. No end group written: not given here. Ala(1H-tetrazol-5-yl) = N[C@@H](Cc1nnn[nH]1)C(=O)O; Tz = tetrazole-substituted aspartic acid; Aib = CC(C)(N)C(=O)O", "data": [{"binder": "HS[Tz]GIFA[Tz]SY[Aib]RYRKQMAVKKYLAAVL-NH2 (also: Tz racemic)", "note": "[Peptide 5]", "values": [{"measurement": "EC50, cAMP assay (Hit Hunter cAMP, chemiluminescence RLU)", "setting": "PAC1 receptor", "result": 0.695, "unit": "nM"}, {"measurement": "EC50, cAMP assay (Hit Hunter cAMP, chemiluminescence RLU)", "setting": "VPAC1 receptor", "result": 0.078, "unit": "nM"}]}, {"binder": "HS[Tz]GIFA[Tz][Aib]Y[Aib]RYRKQMAVKKYLAAVL-NH2 (also: Tz racemic)", "note": "[Peptide 6]", "values": [{"measurement": "EC50, cAMP assay (Hit Hunter cAMP, chemiluminescence RLU)", "setting": "PAC1 receptor", "result": 1.17, "unit": "nM"}, {"measurement": "EC50, cAMP assay (Hit Hunter cAMP, chemiluminescence RLU)", "setting": "VPAC1 receptor", "result": 0.11, "unit": "nM"}]}, {"binder": "HS[Ala(1H-tetrazol-5-yl)]GIFA[Ala(1H-tetrazol-5-yl)]AYSRYRKQMAVKKYLAAVL-NH2 (also: Tz racemic at 3 and 8)", "note": "[Peptide 1]", "values": [{"measurement": "EC50, cAMP assay (Hit Hunter cAMP, chemiluminescence RLU)", "setting": "PAC1 receptor", "result": 1.22, "unit": "nM"}, {"measurement": "EC50, cAMP assay (Hit Hunter cAMP, chemiluminescence RLU)", "setting": "VPAC1 receptor", "result": 0.097, "unit": "nM"}]}, {"binder": "B1", "values": [{"measurement": "EC50, cAMP assay (Hit Hunter cAMP, chemiluminescence RLU)", "setting": "PAC1 receptor", "result": 0.287, "unit": "nM"}, {"measurement": "EC50, cAMP assay (Hit Hunter cAMP, chemiluminescence RLU)", "setting": "VPAC1 receptor", "result": 0.079, "unit": "nM"}]}, {"binder": "B2", "values": [{"measurement": "EC50, cAMP assay (Hit Hunter cAMP, chemiluminescence RLU)", "setting": "PAC1 receptor", "result": 0.911, "unit": "nM"}, {"measurement": "EC50, cAMP assay (Hit Hunter cAMP, chemiluminescence RLU)", "setting": "VPAC1 receptor", "result": 0.08, "unit": "nM"}]}, {"binder": "B3", "values": [{"measurement": "EC50, cAMP assay (Hit Hunter cAMP, chemiluminescence RLU)", "setting": "PAC1 receptor", "result": 0.738, "unit": "nM"}, {"measurement": "EC50, cAMP assay (Hit Hunter cAMP, chemiluminescence RLU)", "setting": "VPAC1 receptor", "result": 0.082, "unit": "nM"}]}, {"binder": "B4", "values": [{"measurement": "EC50, cAMP assay (Hit Hunter cAMP, chemiluminescence RLU)", "setting": "PAC1 receptor", "result": 0.857, "unit": "nM"}, {"measurement": "EC50, cAMP assay (Hit Hunter cAMP, chemiluminescence RLU)", "setting": "VPAC1 receptor", "result": 0.107, "unit": "nM"}]}, {"binder": "HS[Tz]GIFT[Tz][Aib]Y[Aib]RYRKQMAVKKYLAAVL-NH2 (also: Tz racemic)", "note": "[Peptide 7]", "values": [{"measurement": "EC50, cAMP assay (Hit Hunter cAMP, chemiluminescence RLU)", "setting": "PAC1 receptor", "result": 0.319, "unit": "nM"}, {"measurement": "EC50, cAMP assay (Hit Hunter cAMP, chemiluminescence RLU)", "setting": "VPAC1 receptor", "result": 0.096, "unit": "nM"}]}, {"binder": "HS[Tz]GIFT[Tz]SYSRYRKQMAVKKYLA-NH2 (also: Tz racemic)", "note": "[Peptide 8]", "values": [{"measurement": "EC50, cAMP assay (Hit Hunter cAMP, chemiluminescence RLU)", "setting": "PAC1 receptor", "result": 0.679, "unit": "nM"}, {"measurement": "EC50, cAMP assay (Hit Hunter cAMP, chemiluminescence RLU)", "setting": "VPAC1 receptor", "result": 0.045, "unit": "nM"}]}, {"binder": "B5", "values": [{"measurement": "EC50, cAMP assay (Hit Hunter cAMP, chemiluminescence RLU)", "setting": "PAC1 receptor", "result": 0.079, "unit": "nM"}, {"measurement": "EC50, cAMP assay (Hit Hunter cAMP, chemiluminescence RLU)", "setting": "VPAC1 receptor", "result": 0.243, "unit": "nM"}]}, {"binder": "B6", "values": [{"measurement": "EC50, cAMP assay (Hit Hunter cAMP, chemiluminescence RLU)", "setting": "PAC1 receptor", "result": 0.447, "unit": "nM"}, {"measurement": "EC50, cAMP assay (Hit Hunter cAMP, chemiluminescence RLU)", "setting": "VPAC1 receptor", "result": 0.057, "unit": "nM"}]}, {"binder": "B7", "values": [{"measurement": "EC50, cAMP assay (Hit Hunter cAMP, chemiluminescence RLU)", "setting": "PAC1 receptor", "result": 0.398, "unit": "nM"}, {"measurement": "EC50, cAMP assay (Hit Hunter cAMP, chemiluminescence RLU)", "setting": "VPAC1 receptor", "result": 0.071, "unit": "nM"}]}, {"binder": "HS[Tz]GIFA[Tz][Aib]YSRYRKQMAVKKYLAAVL-NH2 (also: Tz racemic)", "note": "[Peptide 4]", "values": [{"measurement": "EC50, cAMP assay (Hit Hunter cAMP, chemiluminescence RLU)", "setting": "PAC1 receptor", "result": 2.36, "unit": "nM"}, {"measurement": "EC50, cAMP assay (Hit Hunter cAMP, chemiluminescence RLU)", "setting": "VPAC1 receptor", "result": 0.121, "unit": "nM"}]}, {"binder": "B8", "values": [{"measurement": "EC50, cAMP assay (Hit Hunter cAMP, chemiluminescence RLU)", "setting": "PAC1 receptor", "result": 1.62, "unit": "nM"}, {"measurement": "EC50, cAMP assay (Hit Hunter cAMP, chemiluminescence RLU)", "setting": "VPAC1 receptor", "result": 0.142, "unit": "nM"}]}, {"binder": "B9", "values": [{"measurement": "EC50, cAMP assay (Hit Hunter cAMP, chemiluminescence RLU)", "setting": "PAC1 receptor", "result": 4.28, "unit": "nM"}, {"measurement": "EC50, cAMP assay (Hit Hunter cAMP, chemiluminescence RLU)", "setting": "VPAC1 receptor", "result": 0.651, "unit": "nM"}]}]}
